The supplement of paper PMC7125110
± gives the standard error. For some of these results: This sample holds only a part of the variants without activity.

B1: glmS ribozyme (parent)
chain: AUAAAAGCGCCAGAACUACAGAAAUGUAGUUGACGAGGAGGAGGUUUAUCGAAUUUUCGGCGGAUGCCUCCAAA

Assays:
Conditions in all cases: with glucosamine-6-phosphate
glucosamine-6-phosphate [1] = variants of: B1; test: kcat; higher = faster cleavage; RNA array
Procedure, shortened: (§1)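 Over ~14 h at 37 °C, tiles were imaged as glucosamine-6-phosphate (40 μM to 10 mM) in HEPES/KCl/Mg(OAc)2 buffer flowed across sequenced MiSeq chips. The chips carried barcoded ribozyme variants transcribed in situ by E. coli RNA polymerase and tracked with a hybridised Cy3 probe. After normalisation to baseline and to non-cleaving reference variants, one- or two-exponential decay fits of per-tile medians gave kobs. kcat and KM followed from weighted Michaelis–Menten fits across concentrations.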

glucosamine-6-phosphate [2] = variants of: B1; test: KM; higher = weaker cofactor use; RNA array
Procedure, shortened: as §1

glucosamine-6-phosphate [3] = variants of: B1; test: self-cleavage kobs at 640 uM GlcN6P; higher = faster cleavage; RNA array
Procedure, shortened: as §1

glucosamine-6-phosphate [4] = variants of: B1; test: self-cleavage kobs at 2500 uM GlcN6P; higher = faster cleavage; RNA array
Procedure, shortened: as §1

glucosamine-6-phosphate [5] = variants of: B1; test: self-cleavage kobs at 10000 uM GlcN6P; higher = faster cleavage; RNA array
Procedure, shortened: as §1

glucosamine-6-phosphate [6] = variants of: B1; test: self-cleavage kobs at 160 uM GlcN6P; higher = faster cleavage; RNA array
Procedure, shortened: as §1

glucosamine-6-phosphate [7] = variants of: B1; test: self-cleavage kobs at 40 uM GlcN6P; higher = faster cleavage; RNA array
Procedure, shortened: as §1

Row | Variant | kcat (glucosamine-6-phosphate [1]) [s⁻¹] | KM (glucosamine-6-phosphate [2]) [µM] | self-cleavage kobs at 640 uM GlcN6P (glucosamine-6-phosphate [3]) [s⁻¹] | self-cleavage kobs at 2500 uM GlcN6P (glucosamine-6-phosphate [4]) [s⁻¹] | self-cleavage kobs at 10000 uM GlcN6P (glucosamine-6-phosphate [5]) [s⁻¹] | self-cleavage kobs at 160 uM GlcN6P (glucosamine-6-phosphate [6]) [s⁻¹] | self-cleavage kobs at 40 uM GlcN6P (glucosamine-6-phosphate [7]) [s⁻¹]
1 | A39G A48C | 0.000798 ± 0.00012 | 2140 ± 600 | 0.000196 ± 3.4e-05 | 0.000468 ± 9e-05 | 0.00063 ± 0.0001 | – | –
2 | A39G A48U | 0.00118 ± 0.00016 | 5000 ± 1200 | 0.000139 ± 3.1e-05 | 0.000436 ± 8.7e-05 | 0.000774 ± 0.00011 | – | –
3 | G40C C58A | 1.41e-05 ± 2.3e-06 | – | – | – | – | < 1e-05 | –
4 | G41A U45C | 0.0002 ± 3.8e-05 | 303 ± 140 | 0.000158 ± 3.6e-05 | 0.000154 ± 3.9e-05 | 0.000372 ± 0.00017 | 6.67e-05 ± 1.8e-05 | –
5 | G40U G66C | 0.000542 ± 7.3e-05 | 2060 ± 890 | – | – | 0.00046 ± 6.4e-05 | – | –
6 | G40C C70A | 0.000174 ± 1.6e-05 | 516 ± 140 | 0.000105 ± 1.9e-05 | 0.00016 ± 3.8e-05 | 0.000154 ± 2.9e-05 | – | –
7 | A42C U55G | < 1e-05 | – | – | – | – | – | < 1e-05
8 | G41C A53G | 0.000359 ± 9.5e-05 | – | 0.000157 ± 3.2e-05 | 0.000193 ± 4.2e-05 | 0.000438 ± 7.1e-05 | 5.35e-05 ± 1.4e-05 | –
9 | A42G U47C | 0.00858 ± 0.0022 | 6280 ± 2000 | 0.00074 ± 0.00014 | 0.00232 ± 0.00039 | 0.00583 ± 0.0016 | 0.000257 ± 7.7e-05 | 6.46e-05 ± 2.1e-05
10 | G41A U54G | 0.000873 ± 0.00013 | 336 ± 90 | 0.00057 ± 0.00021 | 0.000898 ± 0.00016 | 0.000661 ± 0.00021 | – | 9.13e-05 ± 1.9e-05
11 | A39U A42G | 0.0208 ± 0.0077 | 1440 ± 690 | 0.0052 ± 0.0011 | 0.0216 ± 0.0065 | 0.019 ± 0.006 | 0.00186 ± 0.00055 | 0.000671 ± 0.00011
12 | A39U A42C | 0.000556 ± 3.1e-05 | 3030 ± 290 | 9.53e-05 ± 1.1e-05 | 0.000273 ± 3.6e-05 | 0.000419 ± 3.9e-05 | 2.58e-05 ± 7.6e-06 | –
13 | A39G U56A U57G G60U C67U C70U | 1.31e-05 ± 5.3e-06 | – | – | – | – | – | –
14 | A39G A64G | 0.127 ± 0.027 | 5960 ± 1400 | 0.0131 ± 0.0018 | 0.0328 ± 0.0078 | 0.0876 ± 0.026 | 0.00322 ± 0.00052 | 0.000853 ± 0.00016
15 | G40A U57A | 3.08e-05 ± 6.4e-06 | – | – | 3.99e-05 ± 1.3e-05 | 2.63e-05 ± 9.5e-06 | < 1e-05 | < 1e-05
16 | A39U U49G | 0.00055 ± 0.00012 | – | 0.000168 ± 5.1e-05 | 0.000231 ± 6.6e-05 | 0.000461 ± 7.3e-05 | – | –
17 | G40U G59A | < 1e-05 | – | < 1e-05 | – | – | < 1e-05 | –
18 | G41A C71A | 0.000272 ± 3.8e-05 | 645 ± 210 | 0.000125 ± 1.7e-05 | 0.000308 ± 5.6e-05 | 0.000248 ± 2.8e-05 | 5.23e-05 ± 1.1e-05 | 2.7e-05 ± 8.9e-06
19 | G41A C71U | 0.000308 ± 7.8e-05 | 697 ± 340 | 0.000132 ± 1.5e-05 | 0.000414 ± 5e-05 | 0.00026 ± 3e-05 | 5.5e-05 ± 7.2e-06 | 3e-05 ± 6.9e-06
20 | G40C C71U | 0.00477 ± 0.0015 | 1730 ± 780 | 0.00124 ± 0.00014 | 0.00328 ± 0.00041 | 0.00384 ± 0.00053 | 0.000335 ± 4.3e-05 | 0.000198 ± 2.6e-05
21 | G40A U56A | 0.00543 ± 0.0016 | 3080 ± 1300 | 0.00103 ± 0.00021 | 0.00192 ± 0.00042 | 0.00516 ± 0.0011 | 0.000256 ± 5.7e-05 | 9.01e-05 ± 2.5e-05
22 | G40A U56C | 0.000181 ± 2.6e-05 | 2280 ± 720 | 4.68e-05 ± 8.5e-06 | 8.42e-05 ± 1.1e-05 | 0.000157 ± 1.9e-05 | – | –
23 | A42G C50U | 0.000135 ± 1.2e-05 | 5810 ± 1200 | – | 3.96e-05 ± 1.9e-05 | 8.57e-05 ± 1.3e-05 | – | –
24 | A42G C50A | 4.52e-05 ± 2.6e-06 | 7070 ± 920 | – | – | – | – | –
25 | G40C A53C | 0.000789 ± 2e-05 | 2240 ± 110 | 0.000176 ± 2.5e-05 | 0.0004 ± 6.6e-05 | 0.000652 ± 7.2e-05 | 5.46e-05 ± 1.9e-05 | –
26 | G40U U47G | 0.000765 ± 0.00012 | 908 ± 250 | 0.000262 ± 5.2e-05 | 0.000699 ± 0.00013 | 0.000681 ± 0.00011 | 0.000115 ± 2.6e-05 | 4.04e-05 ± 1e-05
27 | A39U G66C C67A | 0.000462 ± 8.7e-05 | 1570 ± 490 | 0.00015 ± 3.2e-05 | 0.000248 ± 6.1e-05 | 0.000455 ± 0.00013 | 4.03e-05 ± 1.3e-05 | –
28 | G41C U47G | 0.000713 ± 0.00028 | – | – | 3.37e-05 ± 1.6e-05 | 0.000117 ± 2.8e-05 | – | –
29 | A42C U49G | 1.03e-05 ± 3.2e-07 | 512 ± 51 | – | – | – | – | –
30 | A42G G43A | 0.000155 ± 2.1e-05 | 1440 ± 500 | 5.32e-05 ± 1.5e-05 | 8.7e-05 ± 2.3e-05 | 0.000143 ± 2.8e-05 | – | < 1e-05
